From patent publication US20030186868A1 (Regeneron, published 2003) come the findings set out here.

Where two headings read alike, the source gives them in different places. Bridge positions count the residues as written; N and C are the ends. Ends that are not written are not given here.

The target of assay [1] is T1, VEGFR-2/NP-1 co-receptor complex (cells co-expressing hVEGFR-2 and hNP-1) (human, UniProt P35968 20-1356; O14786 22-923).
T1 construct: whole, on cells; All numbers printed for cells co-expressing both receptors are put on this molecule; also called R2 + NP1 Cells; VEGFR-2/NP-1 complex
T1 sequence (P35968 20-1356, chain 1 of 2): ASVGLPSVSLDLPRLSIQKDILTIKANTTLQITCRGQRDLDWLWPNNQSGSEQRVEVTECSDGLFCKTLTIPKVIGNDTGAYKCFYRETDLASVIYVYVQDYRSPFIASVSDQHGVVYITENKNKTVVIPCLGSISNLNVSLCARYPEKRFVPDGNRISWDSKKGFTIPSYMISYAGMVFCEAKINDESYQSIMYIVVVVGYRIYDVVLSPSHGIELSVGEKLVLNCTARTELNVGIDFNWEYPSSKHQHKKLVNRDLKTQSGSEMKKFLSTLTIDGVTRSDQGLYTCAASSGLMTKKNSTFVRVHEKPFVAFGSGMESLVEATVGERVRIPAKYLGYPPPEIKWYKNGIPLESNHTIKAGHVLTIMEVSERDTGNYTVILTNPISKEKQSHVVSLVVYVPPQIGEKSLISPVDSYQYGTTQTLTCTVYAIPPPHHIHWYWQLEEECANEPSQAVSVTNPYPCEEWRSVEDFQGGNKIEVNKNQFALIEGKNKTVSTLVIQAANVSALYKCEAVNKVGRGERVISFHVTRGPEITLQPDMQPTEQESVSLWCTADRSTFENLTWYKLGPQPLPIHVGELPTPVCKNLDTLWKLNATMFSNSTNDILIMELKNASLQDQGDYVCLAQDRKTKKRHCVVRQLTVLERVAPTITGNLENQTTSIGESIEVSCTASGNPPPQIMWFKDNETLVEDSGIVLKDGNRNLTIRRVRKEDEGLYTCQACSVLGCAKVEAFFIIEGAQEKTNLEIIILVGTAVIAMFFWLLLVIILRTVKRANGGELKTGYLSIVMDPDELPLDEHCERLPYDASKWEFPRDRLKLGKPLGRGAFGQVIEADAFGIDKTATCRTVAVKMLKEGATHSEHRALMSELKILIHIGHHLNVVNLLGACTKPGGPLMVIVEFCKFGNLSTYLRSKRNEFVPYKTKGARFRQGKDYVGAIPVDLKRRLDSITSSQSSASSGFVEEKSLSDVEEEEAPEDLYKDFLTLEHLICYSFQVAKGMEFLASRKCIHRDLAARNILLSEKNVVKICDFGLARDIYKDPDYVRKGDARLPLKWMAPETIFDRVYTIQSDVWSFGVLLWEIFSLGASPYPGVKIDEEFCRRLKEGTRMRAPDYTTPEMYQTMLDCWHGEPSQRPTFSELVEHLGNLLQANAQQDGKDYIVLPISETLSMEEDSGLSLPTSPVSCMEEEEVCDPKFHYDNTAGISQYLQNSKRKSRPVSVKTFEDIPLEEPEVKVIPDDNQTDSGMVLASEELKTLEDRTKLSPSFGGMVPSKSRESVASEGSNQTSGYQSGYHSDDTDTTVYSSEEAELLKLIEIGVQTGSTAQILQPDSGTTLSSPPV
T1 sequence (O14786 22-923, chain 2 of 2): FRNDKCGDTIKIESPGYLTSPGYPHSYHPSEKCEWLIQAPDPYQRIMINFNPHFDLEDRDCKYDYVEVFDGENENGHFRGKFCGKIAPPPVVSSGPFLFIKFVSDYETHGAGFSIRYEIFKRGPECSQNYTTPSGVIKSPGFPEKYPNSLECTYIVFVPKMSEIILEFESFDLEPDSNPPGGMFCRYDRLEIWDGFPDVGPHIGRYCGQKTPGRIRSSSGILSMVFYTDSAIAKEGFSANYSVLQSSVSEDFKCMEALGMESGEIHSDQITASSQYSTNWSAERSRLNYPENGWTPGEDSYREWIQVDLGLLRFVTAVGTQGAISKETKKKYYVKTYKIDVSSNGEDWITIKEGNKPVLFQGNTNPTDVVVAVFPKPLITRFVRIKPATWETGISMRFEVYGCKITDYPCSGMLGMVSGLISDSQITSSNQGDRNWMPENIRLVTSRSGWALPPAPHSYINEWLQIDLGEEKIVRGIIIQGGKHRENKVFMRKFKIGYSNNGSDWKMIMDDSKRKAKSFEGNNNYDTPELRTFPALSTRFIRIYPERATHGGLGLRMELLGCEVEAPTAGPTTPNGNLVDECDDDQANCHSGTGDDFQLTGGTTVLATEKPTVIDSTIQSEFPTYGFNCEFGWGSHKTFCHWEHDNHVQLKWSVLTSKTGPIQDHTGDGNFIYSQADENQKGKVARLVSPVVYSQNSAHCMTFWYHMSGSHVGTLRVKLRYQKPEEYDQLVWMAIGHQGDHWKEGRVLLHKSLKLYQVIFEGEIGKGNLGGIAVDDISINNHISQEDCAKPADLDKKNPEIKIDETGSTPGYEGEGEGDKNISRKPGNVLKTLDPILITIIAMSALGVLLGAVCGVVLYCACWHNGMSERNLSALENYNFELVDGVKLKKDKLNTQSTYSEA
The assay is described as follows: 125I-VEGF165 (201 pM) competition, cells overexpressing VEGFR-2 and NP-1 (FIG. 7). The protocol:
(§1) Cells are plated the day before experimentation at 200,000 cells per well in twelve well tissue culture plates (VWR) in 1 ml of growth medium specific for each cell type. On the day of experimentation, the cells were pre-equilibrated at 4° C. for 30 to 60 minutes in binding buffer (0.2% BSA, Sigma; 25 mM Hepes, Gibco; MEM, Gibco). […] The binding reaction is allowed to reach equilibrium for four hours at 4° C. with gentle agitation.
(§2) Unbound ligand is then removed by quickly washing three times with 5 ml ice cold BSA-free binding buffer (MEM, Gibco, 25 mM Hepes, Gibco). Cells are lysed by the addition of 250 μl of RIPS Buffer (previously described), and the lysed cells are transferred to 12×75 mm test tubes and counted using a gamma counter. Generation of competition curves and IC₅₀ values are performed using the Prism software package (Graphpad Software Inc., San Diego, Calif.).

In assay [2] the target is T2, human vascular endothelial growth factor receptor-2 (hVEGFR-2) (human, UniProt P35968 20-1356).
T2 construct: whole, on cells; also called flk-1; FLK-1
T2 sequence (P35968 20-1356): as the sequence (P35968 20-1356, chain 1 of 2) above
The assay is described as follows: 125I-VEGF165 competition, whole COS-1 cells. The protocol:
as §1, §2

In assay [3] the target is VEGFR-2/NP-1 co-receptor complex (cells co-expressing hVEGFR-2 and hNP-1) (human) (UniProt P35968). The assay is described as follows: 125I-VEGF165 competition, whole COS-1 cells.
Chain of VEGFR-2/NP-1 co-receptor complex (cells co-expressing hVEGFR-2 and hNP-1) (human) (P35968 20-1356, chain 1 of 2): as above
Chain of VEGFR-2/NP-1 co-receptor complex (cells co-expressing hVEGFR-2 and hNP-1) (human) (O14786 22-923, chain 2 of 2, further chain): as the sequence (O14786 22-923, chain 2 of 2) above
In assay [4] the target is human vascular endothelial growth factor receptor-2 (hVEGFR-2) (human) (UniProt P35968). The assay is described as follows: 125I-VEGF165 competition, whole COS-1 cells.
Chain of human vascular endothelial growth factor receptor-2 (hVEGFR-2) (human) (P35968 20-1356): as the sequence (P35968 20-1356, chain 1 of 2) above
The target in assay [5] is VEGFR-2/NP-1 co-receptor complex (cells co-expressing hVEGFR-2 and hNP-1) (human) (UniProt P35968). The assay is described as follows: 125I-VEGF165 competition, whole COS-1 cells. This is another data set of the same source.
The target in assay [6] is T3, human Neuropilin-1 (hNP-1) (human, UniProt O14786 22-923).
T3 construct: whole, on cells; also called hNeuropilin-1
T3 sequence (O14786 22-923): as the sequence (O14786 22-923, chain 2 of 2) above
The assay is described as follows: 125I-VEGF165 competition, whole COS-1 cells.

Assay [7] concerns the target T1, VEGFR-2/NP-1 co-receptor complex (cells …). The assay is described as follows: 125I-VEGF165 competition, whole COS-1 cells.
Assay [8] addresses T3, human Neuropilin-1 (hNP-1). The assay is described as follows: 125I-VEGF165 competition, whole COS-1 cells. The protocol: as §1, §2
This is another data set of the same source.

For assay [9], the target named is human Neuropilin-1 (hNP-1) (human) (UniProt O14786). The assay is described as follows: 125I-VEGF165 competition, whole COS-1 cells.
Chain of human Neuropilin-1 (hNP-1) (human) (O14786 22-923): as the sequence (O14786 22-923, chain 2 of 2) above
For assay [10], the target named is T3, human Neuropilin-1 (hNP-1). The assay is described as follows: 125I-VEGF165 competition by cold VEGF165, whole COS-1 cells. The protocol: as §1, §2
In assay [11] the target is T3, human Neuropilin-1 (hNP-1). The assay is described as follows: saturation binding of 125I-VEGF165, whole COS-1 cells (transient). How it is done:
as §1, §2

Assay [12] deals with T3, human Neuropilin-1 (hNP-1). The assay is described as follows: 125I-VEGF165 competition, stable Balb/C 3T3 A31 cells.

What is called IC50 is the point on the concentration scale where inhibition reaches its midpoint. High values mean weaker potency, low ones greater potency. As a reminder, the Kd is a measure of binding affinity in units of concentration. A higher Kd goes with lower affinity.

Molecule RRPKGRGKRRREKQRPDAVPRR (also called P6P7 peptide) [P6P7] showed an IC50 in assay [1] of 1170 nM.

For KGRGKRAAEAQAPSDKPRR [P6V8-3NCSA7, 8, 10, 12], the binding result in assay [2] is “no binding”.

B1: (cap)P6V8-3NCS (peptide)
peptide: KGRGKRRREKQRPSDKPRR
modifications: not fully specified (N-terminus, C-terminus); also: amino and carboxyl termini capped, caps not given here
For the molecule B1, in assay [3], the relative affinity (IC50 peptide / IC50 VEGF165) worked out at 96200. In assay [2], the binding result was “no binding”.

In the case of KGRGKRAAEAQRPSDKPRR [P6V8-3NCSA7, 8, 10], the relative affinity (IC50 peptide / IC50 VEGF165) in assay [4] worked out at 110000.

For the molecule KGRGKRAAEKQAPSDKPRR [P6V8-3NCSA7, 8, 12], the relative affinity (IC50 peptide / IC50 VEGF165) in [5] came to 36600; in assay [4], 6000.

B2: P6V8 (peptide)
peptide: RRPKGRGKRRREKQRPCDKPRR
notes: synthetic; holds one free cysteine; also called P6V8 parent peptide
In the case of B2, the binding result in assay [6] is “binds”.

For KGRGKRRRECQRPSCKPRR (disulfide 10-15) [P6V8-3NCSC13C18], the results for the binding result in assay [6], in assay [7] and in assay [2] were “binds”, “binds” and “no binding”, respectively.

On to RRPAAAGKRRREKQRPSDKPRR [AS-1], for which, in assay [2], the binding result is listed as “no binding”.

As for RPCDKPRR [V8], the binding result in assay [2] and in [8] was “no binding” throughout.

Turning to RPSDKPRR [V8CS], the binding result in assay [2] was “no binding”.

In assay [9], AGRGARAAEAQRPSDKPRR [P6V8-3NCSA1, 5, 7, 8, 10] yielded a relative affinity to lead peptide (IC50 peptide / IC50 P6V8-3NCS) of 67.8. Further, the relative affinity (IC50 peptide / IC50 VEGF165) in assay [4] was found to be 212000.

Consider AGRGARAAEKQAPSDKPRR [P6V8-3NCSA1, 5, 7, 8, 12], for which, in assay [2], the binding result is recorded as “no binding”.

B3: human recombinant VEGF165 (ligand, UniProt P15692-4 27-191, looked up)
chain: APMAEGGGQNHHEVVKFMDVYQRSYCHPIETLVDIFQEYPDEIEYIFKPSCVPLMRCGGCCNDEGLECVPTEESNITMQIMRIKPHQGQHIGEMSFLQHNKCECRPKKDRARQENPCGPCSERRKHLFVQDPQTCKCSCKNTDSRCKARQLELNERTCRCDKPRR
modifications: 125I-labelled (chloramine T) where used as tracer
On to B3, for which, in [10], the IC50 was 0.582 nM and the “log IC50” value was -9.24. Besides, in assay [11], the affinity, expressed as Kd, was 2.09 nM and the “Log Kd” value is -8.68.

For CAGRGKRCREKQRPSDKPRR (disulfide 1-8, also called P6V8-3NCSA-1 7CCA1) [P6V8-3NCS1-7CCA1], the binding result in assay [2] is recorded as “no binding”.

With CKGRGKRCREKQRPSDKPRR (disulfide 1-8; also: capped amino and carboxyl termini, caps not given here) [(cap)P6V8-3NCS1-7CC], the binding result in [6], in assay [7] and in [2] was “no binding” throughout.

Regarding CAGRGARCREKQRPSDKPRR (disulfide 1-8) [P6V8-3NCS1-7CCA1A5], the binding result in assay [2] is “no binding”.

In the case of CKGRGARCREKQRPSDKPRR (disulfide 1-8) [P6V8-3NCS1-7CCA5], in [2], the binding result is on record as “no binding”.

RRPKGRGKRRREKQRP (also called P6 peptide; pp6) [P6]: the IC50 in assay [1] was found to be 12200 nM.

The molecule RRPKGRGKRRREKQRAAAKPRR [AS-4a] yielded a relative affinity to lead peptide (IC50 peptide / IC50 P6V8CS) in [4] of 1.9.

KGRGKRRREKQRPCDKPRR [P6V8-3N]: in assay [12], the IC50 was 254 nM.

Turning to KGAGARRREKQRPSDKPRR [P6V8-3NCSA3A5], the binding result in [2] is given as “no binding”.

Turning to AGRGKARREKQRPSDKPRR [P6V8-3NCSA1A6], in [2], the binding result is reported as “no binding”.

Consider AGRGARRREKQRPSDKPRR [P6V8-3NCSA1A5], for which the binding result in assay [2] is “no binding”.

With KGAGKARREKQRPSDKPRR [P6V8-3NCSA3A6], in assay [2], the binding result was “no binding”.

On to CKGRGKRCREKQRPSDKPRR (disulfide 1-8, also called P6V8-3NCW1-7CC) [P6V8-3NCS1-7CC], for which the binding result in assay [2] is “no binding”.
